The target in experiment [1] is T1, human HER2 expressed on cells (cancer cell lines and normal primary cultures) (human, UniProt P04626 23-1255).
T1 construct: Endogenous HER2 of the cell lines; the same cells also express APLP2; also called human epidermal growth factor receptor 2
Put plainly: imaging, Alexa647-labelled antibody 10 ug/mL at 4 C on BT483 cells; signal per nuclei, normalised to the highest cell line. Here is the method:
(§1) To test the ability of bispecific anti-HER2xAPLP2 molecules described herein to bind to cells lines expressing various levels of HER2, a high content imaging assay was performed. […] Cells were plated on collagen-coated, black wall, 96-well, optical plates (Greiner, Cat #655936) at 2.5×10⁵ cells per well in their appropriate culture media, which is described for each cell line/culture in Table 6, and incubated overnight at 37° C. in 5% CO₂.
(§2) After, cells were washed twice with cold DMEM+10% FBS. […] After, the solution was replaced with DPBS/CM. Binding of the bispecific antibodies to each of the cell types was measured using an Image Xpress^Micro automatic microscope (Molecular Devices). […] (See also FIG. 2.)
(§3) The signal of antibody binding (mean intensity fluorescence of Alexa647) divided by the nuclei signals was determined for each condition using MetaXpress software (Molecular Devices). Values were normalized to the cell line displaying the highest antibody binding signal.

In experiment [2] the target is T1, human HER2 expressed on cells (cancer …). In words: imaging, Alexa647-labelled antibody 10 ug/mL at 4 C on T47D cells; signal per nuclei, normalised to the highest cell line. The procedure: as §2, §3
Experiment [3] has the same target. Put plainly: imaging, Alexa647-labelled antibody 10 ug/mL at 4 C on MDA-MB-361 cells; signal per nuclei, normalised to the highest cell line. Here is the method: as §2, §3
The target is the same in experiment [4]. Put plainly: imaging, Alexa647-labelled antibody 10 ug/mL at 4 C on MDA-MB-453 cells; signal per nuclei, normalised to the highest cell line. The procedure:
as §2, §3

The target is the same in experiment [5]. Put plainly: imaging, Alexa647-labelled antibody 10 ug/mL at 4 C on NBE cells; signal per nuclei, normalised to the highest cell line. The procedure:
as §2, §3

For experiment [6] the target is unchanged. In words: imaging, Alexa647-labelled antibody 10 ug/mL at 4 C on MCF7 cells; signal per nuclei, normalised to the highest cell line. The procedure: as §2, §3
Experiment [7] shares this target. In words: imaging, Alexa647-labelled antibody 10 ug/mL at 4 C on NLE cells; signal per nuclei, normalised to the highest cell line. The procedure:
as §2, §3

Experiment [8] has the same target. In words: imaging, Alexa647-labelled antibody 10 ug/mL at 4 C on MDA-MB-468 cells; signal per nuclei, normalised to the highest cell line. The procedure: as §2, §3
For experiment [9], the target named is T2, human APLP2 extracellular domain expressed with a C-terminal myc-myc-hexahistidine tag (human, UniProt Q06481 32-692).
T2 construct: also called hAPLP2-MMH; APLP2.mmh
In words: SPR (Biacore 4000), antibody captured on anti-human Fc, hAPLP2-MMH injected, 37 C. Here is the method: (§4) Equilibrium dissociation constants (KD values) for HER2 and APLP2 binding to purified anti-HER2xAPLP2 bispecific and parental antibodies were determined using a real-time surface plasmon resonance biosensor using a Biacore 4000 instrument. The Biacore sensor surface was first derivatized by amine coupling with a monoclonal mouse anti-human Fc antibody (GE, Cat #BR-1008-39) to capture anti-HER2xAPLP2 bispecific monoclonal antibodies. […] Kinetic association rate constant (ka) and dissociation rate constant (kd) were determined by fitting the real-time sensorgrams to a 1:1 binding model using Scrubber 2.0c curve fitting software. Binding dissociation equilibrium constants (KD) and dissociative half-lives (t1/2) were calculated from the kinetic rate constants as: […]

Experiment [10] addresses T1, human HER2 expressed on cells (cancer …). In words: imaging, Alexa647-labelled antibody 10 ug/mL at 4 C on JIMT-1 cells; signal per nuclei, normalised to the highest cell line. Here is the method:
as §2, §3

Experiment [11] has the same target. In words: imaging, Alexa647-labelled antibody 10 ug/mL at 4 C on SKBR3 cells; signal per nuclei, normalised to the highest cell line. Here is the method: as §1, §2, §3
Experiment [12] concerns the target T2, human APLP2 extracellular domain …. Put plainly: SPR, antibody captured, hAPLP2-MMH injected, 25 C (second row for this antibody).
The target of experiment [13] is T3, human HER2 extracellular domain expressed with a C-terminal myc-myc-hexahistidine tag (human, UniProt P04626 23-652).
T3 construct: also called hHER2-MMH; HER2.mmh
Put plainly: SPR (Biacore 4000), antibody captured on anti-human Fc, hHER2-MMH injected, 37 C. Here is the method: as §4

In experiment [14] the target is T2, human APLP2 extracellular domain …. In words: SPR, antibody captured, hAPLP2-MMH injected, 25 C.

T2 sequence (Q06481 other isoform, or with tags, fused parts or gaps): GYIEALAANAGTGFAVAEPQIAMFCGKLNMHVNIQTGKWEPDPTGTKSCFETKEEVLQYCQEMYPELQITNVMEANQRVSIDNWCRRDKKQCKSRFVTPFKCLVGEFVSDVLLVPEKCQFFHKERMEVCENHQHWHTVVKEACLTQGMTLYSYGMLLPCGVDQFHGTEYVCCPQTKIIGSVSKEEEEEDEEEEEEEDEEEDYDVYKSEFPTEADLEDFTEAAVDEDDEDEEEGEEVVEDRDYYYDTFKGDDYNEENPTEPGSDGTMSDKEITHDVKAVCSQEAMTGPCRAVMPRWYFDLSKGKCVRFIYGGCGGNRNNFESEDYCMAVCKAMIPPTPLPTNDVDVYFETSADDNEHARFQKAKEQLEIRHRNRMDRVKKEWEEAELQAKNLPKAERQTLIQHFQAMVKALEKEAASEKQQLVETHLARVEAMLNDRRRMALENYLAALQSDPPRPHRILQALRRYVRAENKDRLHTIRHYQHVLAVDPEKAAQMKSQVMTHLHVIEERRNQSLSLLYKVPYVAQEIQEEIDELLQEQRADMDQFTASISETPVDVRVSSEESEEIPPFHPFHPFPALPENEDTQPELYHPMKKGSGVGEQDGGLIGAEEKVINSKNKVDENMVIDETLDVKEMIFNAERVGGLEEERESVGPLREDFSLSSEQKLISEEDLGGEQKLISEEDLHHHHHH

B1: H4H25021D (bispecific antibody, IgG4, V domains shown)
VH 1: QVQLVQSGPEVKKPGASVKVSCKASGYTFPNFGISWVRQAPGQGLEWMGWIAPYNVATNYAPKLQGRVTMTTDTSTSTAYMELRSLRSDDTAVYYCARWGAGYMGYYYYGMDVWGQGTTVTVSS
VH 2: QVQLVQSGVEVKKPGASVKVSCKASGYTFTDYGISWVRQAPGQGLEWMGWISAHNGNTNYAQKLQGRVTMTTDTSTNTAYMELRSLRSDDTAVYYCARRNWKYFDYWGQGTLVTVSS
VL: not shown
notes: Wild-type kappa CL and a modified (chimeric) IgG4 CH domain as set forth in US20140243504A1; also called bispecific anti-HER2xAPLP2 antibody
For the molecule B1, the “Antibody bound (% of highest)” value worked out at 22% in experiment [1]; 8% in experiment [2]; 37% in experiment [3]; 28% in [4]; 8% in experiment [5]; 7% in experiment [6]. Besides, the “Antibody bound (% of highest)” value in [7] is 7%; in experiment [8] it was 1%; in experiment [10], 17%; in [11], 100%. Moreover, in [9], the “100 nM hAPLP2-MMH Bound (RU)” value is 24 RU. This molecule also displayed a Kd in experiment [9] of 976 nM. Moreover, the t½ in [9] was 0.04 min.

B2: H4H25018D (bispecific antibody, IgG4, V domains shown)
VH 1: QVQLQESGPGLVKPSQTLSLTCTVSGGSISSGHYFWSWIRQHPGKGLEWIGYIFYSGSTHYNPSLKSRLSISVDTSKNQFSLRLTSVTAADTAVYYCAREEGDYNFWDVDYVPGHFDYWGQGTLVTVSS
VH 2: EVQLVESGGGLVQPGRSLRLSCVASGFTFADYAMHWVRQAPGKGLEWVSGISWNSGNIDYADSVKGRFTISRDNAKNSLYLQMNSLRTEDTALYYCAKVRIVVAGYYYYYYGMDVWGQGTTVTVSS
VL: not shown
notes: as for B1
On to B2, for which the “Antibody bound (% of highest)” value stood at 16% in experiment [1]; 5% in experiment [2]; 30% in experiment [3]; 25% in experiment [4]; 9% in [5]; 6% in experiment [6]. The “Antibody bound (% of highest)” value in [7] is 3%; in experiment [8], 1%; in experiment [10], 17%; in [11] it was 100%. Further, the Kd in experiment [12] stood at 16.6 nM; in experiment [13], 4.21 nM; in [14], 15.6 nM; in [9] it was 145 nM. Besides, the results for the t½ in [12], in experiment [14] and in experiment [9] were 7.7 min, 6.8 min and 1.2 min, respectively. Moreover, the “90 nM hAPLP2-MMH Bound (RU)” value in [14] worked out at 30.2 RU. Moreover, the “100 nM hAPLP2-MMH Bound (RU)” value in experiment [9] is 49 RU.

B3: H4H25020D (bispecific antibody, IgG4, V domains shown)
VH 1: QVQLQESGPGLVKPSQTLSLTCTVSGGSISSGHYFWSWIRQHPGKGLEWIGYIFYSGSTHYNPSLKSRLSISVDTSKNQFSLRLTSVTAADTAVYYCAREEGDYNFWDVDYVPGHFDYWGQGTLVTVSS
VH 2: QVQLVQSGVEVKKPGASVKVSCKASGYTFTDYGISWVRQAPGQGLEWMGWISAHNGNTNYAQKLQGRVTMTTDTSTNTAYMELRSLRSDDTAVYYCARRNWKYFDYWGQGTLVTVSS
VL: not shown
notes: as for B1
In the case of B3, the “Antibody bound (% of highest)” value was 15% in [1]; 5% in experiment [2]; 27% in [3]; 24% in [4]; 8% in [5]; 5% in [6]. Moreover, the “Antibody bound (% of highest)” value was 6% in experiment [7], 1% in experiment [8], 18% in experiment [10] and 100% in experiment [11]. For the same molecule, the Kd was determined as 4.2 nM in [13] and 844 nM in experiment [9]. Besides, in experiment [9], the “100 nM hAPLP2-MMH Bound (RU)” value was determined as 30 RU. The molecule also gave a t½ in experiment [9] of 0.03 min.

B4: H4H25019D (bispecific antibody, IgG4, V domains shown)
VH 1: QVQLVQSGPEVKKPGASVKVSCKASGYTFPNFGISWVRQAPGQGLEWMGWIAPYNVATNYAPKLQGRVTMTTDTSTSTAYMELRSLRSDDTAVYYCARWGAGYMGYYYYGMDVWGQGTTVTVSS
VH 2: EVQLVESGGGLVQPGRSLRLSCVASGFTFADYAMHWVRQAPGKGLEWVSGISWNSGNIDYADSVKGRFTISRDNAKNSLYLQMNSLRTEDTALYYCAKVRIVVAGYYYYYYGMDVWGQGTTVTVSS
VL: not shown
notes: as for B1
As for B4, the “Antibody bound (% of highest)” value in experiment [1] amounted to 22%; in [2], 9%; in [3] it was 32%; in [4] it was 30%; in [5] it was 6%; in experiment [6], 7%. Moreover, the “Antibody bound (% of highest)” value stood at 2% in [7], 1% in experiment [8], 15% in experiment [10] and 100% in [11]. Also, the Kd in experiment [12] worked out at 17.2 nM; in experiment [14] it was 14.6 nM; in [9], 183 nM. The t½ was 6.7 min in [12], 11 min in experiment [13], 8.7 min in experiment [14] and 1.1 min in [9]. The “90 nM hAPLP2-MMH Bound (RU)” value in experiment [14] came out at 30.6 RU. Also, in experiment [9], the “100 nM hAPLP2-MMH Bound (RU)” value came out at 48 RU.

Source of the values: patent US20210246224A1 (Regeneron, published 2021).
